From publication PMC9482650, “Quantitative fragmentomics allow affinity mapping of interactomes” (Nature Communications, 2022)
One block for each binder: values may come before it.

Experiments:
Assay in all cases: holdup assay
Design in all cases: key: below the threshold = too weak to quantify, mostly under pKd 3.1 to 4
LNX1_1, Q8TBB1 = target: LNX1_1, Q8TBB1
DLG4_2, P78352 = target: DLG4_2, P78352
TJP1_2, Q07157 = target: TJP1_2, Q07157
NHERF4_2, Q86UT5 = target: NHERF4_2, Q86UT5
GORASP2, Q9H8Y8 = target: GORASP2, Q9H8Y8
SYNJ2BP, P57105 = target: T1, SYNJ2BP, P57105
T1 sequence (P57105 8-110, limits assumed, looked up): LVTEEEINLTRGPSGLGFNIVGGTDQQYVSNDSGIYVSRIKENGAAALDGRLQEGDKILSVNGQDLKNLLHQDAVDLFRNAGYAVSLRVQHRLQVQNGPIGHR

NHERF3_1, Q5T2W1 = target: T2, NHERF3_1, Q5T2W1
T2 sequence (Q5T2W1 4-100, limits assumed, looked up): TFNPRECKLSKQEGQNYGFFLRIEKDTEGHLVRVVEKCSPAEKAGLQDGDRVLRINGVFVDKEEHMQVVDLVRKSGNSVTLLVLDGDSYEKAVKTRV

LNX2_2, Q8N448 = target: T3, LNX2_2, Q8N448
T3 sequence (Q8N448 334-432, limits assumed, looked up): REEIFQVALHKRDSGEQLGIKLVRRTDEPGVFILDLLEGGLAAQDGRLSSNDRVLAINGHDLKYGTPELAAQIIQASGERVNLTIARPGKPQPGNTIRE

MPP2, Q14168 = target: T4, MPP2, Q14168
T4 sequence (Q14168 180-250, limits assumed, looked up): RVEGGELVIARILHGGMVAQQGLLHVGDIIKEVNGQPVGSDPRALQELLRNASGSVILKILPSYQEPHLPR

PDZRN4_1, Q6ZMN7 = target: PDZRN4_1, Q6ZMN7
PDZRN4_1, Q6ZMN7, sequence (Q6ZMN7 213-318): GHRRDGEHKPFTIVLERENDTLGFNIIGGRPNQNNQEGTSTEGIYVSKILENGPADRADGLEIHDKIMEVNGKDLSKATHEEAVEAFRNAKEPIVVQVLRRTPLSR

NHERF2_2, Q15599 = target: NHERF2_2, Q15599
NHERF2_2, Q15599, sequence (Q15599 142-238): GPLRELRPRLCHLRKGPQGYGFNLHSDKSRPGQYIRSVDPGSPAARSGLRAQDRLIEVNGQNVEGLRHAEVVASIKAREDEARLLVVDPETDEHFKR

MAGI1_2, Q96QZ7 = target: MAGI1_2, Q96QZ7
MAGI1_2, Q96QZ7, sequence (Q96QZ7 456-580): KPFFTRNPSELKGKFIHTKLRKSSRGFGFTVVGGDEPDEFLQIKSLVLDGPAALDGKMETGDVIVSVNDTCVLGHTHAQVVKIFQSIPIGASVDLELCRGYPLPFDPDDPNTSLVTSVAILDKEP

DLG4_1, P78352 = target: DLG4_1, P78352
DLG4_1, P78352, sequence (P78352 62-152): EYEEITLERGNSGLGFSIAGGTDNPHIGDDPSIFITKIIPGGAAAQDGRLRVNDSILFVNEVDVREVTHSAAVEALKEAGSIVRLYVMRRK

SHANK1, Q9Y566 = target: T5, SHANK1, Q9Y566
T5 sequence (Q9Y566 658-767, limits assumed, looked up): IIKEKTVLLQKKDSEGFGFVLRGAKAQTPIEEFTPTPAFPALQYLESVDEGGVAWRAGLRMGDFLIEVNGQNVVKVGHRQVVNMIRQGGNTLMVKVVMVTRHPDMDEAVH

DLG3_2, Q92796 = target: T6, DLG3_2, Q92796
T6 sequence (Q92796 221-321, limits assumed, looked up): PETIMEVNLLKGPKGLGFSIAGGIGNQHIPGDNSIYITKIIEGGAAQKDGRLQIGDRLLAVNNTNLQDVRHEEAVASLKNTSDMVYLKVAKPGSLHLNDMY

MAST1, Q9Y2H9 = target: MAST1, Q9Y2H9
MAST1, Q9Y2H9, sequence (Q9Y2H9 962-1065): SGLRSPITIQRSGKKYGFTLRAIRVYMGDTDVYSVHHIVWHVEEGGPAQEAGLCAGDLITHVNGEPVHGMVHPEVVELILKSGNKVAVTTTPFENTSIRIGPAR

SCRIB_1, Q14160 = target: SCRIB_1, Q14160
SCRIB_1, Q14160, sequence (Q14160 718-814): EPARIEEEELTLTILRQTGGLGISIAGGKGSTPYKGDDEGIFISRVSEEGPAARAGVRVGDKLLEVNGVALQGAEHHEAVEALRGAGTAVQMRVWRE

PTPN3, P26045 = target: PTPN3, P26045
PTPN3, P26045, sequence (P26045 505-587): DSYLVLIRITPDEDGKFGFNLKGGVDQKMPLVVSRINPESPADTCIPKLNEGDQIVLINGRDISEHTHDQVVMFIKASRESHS

LIN7C, Q9NUP9 = target: T7, LIN7C, Q9NUP9
T7 sequence (Q9NUP9 88-185, limits assumed, looked up): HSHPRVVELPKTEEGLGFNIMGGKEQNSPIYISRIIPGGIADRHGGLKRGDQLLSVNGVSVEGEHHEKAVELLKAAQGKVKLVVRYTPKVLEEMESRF

NHERF3_4, Q5T2W1 = target: T8, NHERF3_4, Q5T2W1
T8 sequence (Q5T2W1 373-468, limits assumed, looked up): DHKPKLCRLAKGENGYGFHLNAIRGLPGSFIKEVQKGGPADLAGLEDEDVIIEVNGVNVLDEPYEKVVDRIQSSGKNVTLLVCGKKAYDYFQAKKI

GORASP1, Q9BQQ3 = target: GORASP1, Q9BQQ3
GORASP1, Q9BQQ3, sequence (Q9BQQ3 1-208): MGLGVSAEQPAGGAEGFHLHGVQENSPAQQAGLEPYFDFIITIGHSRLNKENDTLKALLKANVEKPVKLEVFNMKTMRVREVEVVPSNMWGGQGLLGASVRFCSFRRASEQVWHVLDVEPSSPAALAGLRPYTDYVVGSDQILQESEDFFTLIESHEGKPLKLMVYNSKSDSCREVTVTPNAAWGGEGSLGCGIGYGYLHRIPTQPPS

SNTG1, Q9NSN8 = target: T9, SNTG1, Q9NSN8
T9 sequence (Q9NSN8 52-150, limits assumed, looked up): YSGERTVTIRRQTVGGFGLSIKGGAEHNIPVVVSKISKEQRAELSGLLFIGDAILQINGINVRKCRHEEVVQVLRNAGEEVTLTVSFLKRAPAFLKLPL

DFNB31_3, Q9P202 = target: T10, DFNB31_3, Q9P202
T10 sequence (Q9P202 811-907, limits assumed, looked up): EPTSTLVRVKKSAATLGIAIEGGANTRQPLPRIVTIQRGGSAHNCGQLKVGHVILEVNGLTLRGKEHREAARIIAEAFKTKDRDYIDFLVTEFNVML

FRMPD3, Q5JV73 = target: FRMPD3, Q5JV73
FRMPD3, Q5JV73, sequence (Q5JV73 12-100): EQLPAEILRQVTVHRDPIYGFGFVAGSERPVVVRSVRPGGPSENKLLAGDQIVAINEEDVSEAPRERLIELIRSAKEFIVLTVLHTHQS

Inadl_8, Q8NI35 = target: Inadl_8, Q8NI35
Inadl_8, Q8NI35, sequence (Q8NI35 1425-1530): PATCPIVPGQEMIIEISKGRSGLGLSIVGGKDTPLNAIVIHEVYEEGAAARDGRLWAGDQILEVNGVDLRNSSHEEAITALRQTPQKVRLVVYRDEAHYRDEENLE

RHPN1, Q8TCX5 = target: T11, RHPN1, Q8TCX5
T11 sequence (Q8TCX5 508-602, limits assumed, looked up): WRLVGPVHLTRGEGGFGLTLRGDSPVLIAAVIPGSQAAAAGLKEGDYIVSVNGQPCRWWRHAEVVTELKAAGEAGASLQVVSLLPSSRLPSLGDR

MAGI2_3, Q86UL8 = target: MAGI2_3, Q86UL8
MAGI2_3, Q86UL8, sequence (Q86UL8 600-682): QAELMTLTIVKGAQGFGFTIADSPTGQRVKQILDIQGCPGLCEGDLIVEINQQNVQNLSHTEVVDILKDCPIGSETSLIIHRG

[1] = plain residues with an end cap or a label only (N-terminal biotin on a linker: ttds)
[2] = plain residues with an end cap or a label only (N-terminal biotin on a linker: ado-ado)

DLG4_2, P78352, sequence (P78352 155-259): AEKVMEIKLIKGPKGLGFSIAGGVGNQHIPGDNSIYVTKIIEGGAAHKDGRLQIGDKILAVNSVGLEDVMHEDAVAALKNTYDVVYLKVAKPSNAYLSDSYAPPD
TJP1_2, Q07157, sequence (Q07157 181-274): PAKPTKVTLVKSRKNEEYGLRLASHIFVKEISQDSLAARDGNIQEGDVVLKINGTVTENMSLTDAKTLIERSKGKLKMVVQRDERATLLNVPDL
LNX1_1, Q8TBB1, sequence (Q8TBB1 261-371): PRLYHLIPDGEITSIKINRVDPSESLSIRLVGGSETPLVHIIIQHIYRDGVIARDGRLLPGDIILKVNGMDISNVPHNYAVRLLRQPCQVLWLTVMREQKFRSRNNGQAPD
NHERF4_2, Q86UT5, sequence (Q86UT5 220-308): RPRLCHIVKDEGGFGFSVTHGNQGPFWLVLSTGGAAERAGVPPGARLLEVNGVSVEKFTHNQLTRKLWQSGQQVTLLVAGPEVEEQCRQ

- pKd (LNX1_1, Q8TBB1; [1]): 3.98
- pKd (DLG4_2, P78352; [1]): 5.29
- pKd (TJP1_2, Q07157; [1]): below the threshold
- pKd (NHERF4_2, Q86UT5; [1]): below the threshold
- pKd (GORASP2, Q9H8Y8; [1]): 5.18
- pKd (SYNJ2BP, P57105; [1]): 4.35
- pKd (NHERF3_1, Q5T2W1; [1]): below the threshold
- pKd (LNX2_2, Q8N448; [1]): 5.21
- pKd (MPP2, Q14168; [1]): below the threshold
- pKd (PDZRN4_1, Q6ZMN7; [1]): 3.75
- pKd (NHERF2_2, Q15599; [1]): below the threshold
- pKd (MAGI1_2, Q96QZ7; [1]): 4.1
- pKd (DLG4_1, P78352; [1]): 4.69
- pKd (SHANK1, Q9Y566; [1]): below the threshold
- pKd (DLG3_2, Q92796; [1]): 5.31
- pKd (MAST1, Q9Y2H9; [1]): 3.88
- pKd (SCRIB_1, Q14160; [1]): 4.39
- pKd (PTPN3, P26045; [1]): 4.4
- pKd (LIN7C, Q9NUP9; [1]): 4.38
- pKd (NHERF3_4, Q5T2W1; [1]): 3.51
- pKd (GORASP1, Q9BQQ3; [1]): 4.11
- pKd (SNTG1, Q9NSN8; [1]): 4.39
- pKd (DFNB31_3, Q9P202; [1]): 3.69
- pKd (FRMPD3, Q5JV73; [1]): below the threshold
- pKd (Inadl_8, Q8NI35; [1]): 4.82
- pKd (RHPN1, Q8TCX5; [1]): 4.24
- pKd (MAGI2_3, Q86UL8; [1]): 4.4
Binder: LCALPKVTTV [AGMAT, Q9BSE5]

- pKd (LNX1_1, Q8TBB1; [1]): below the threshold
- pKd (DLG4_2, P78352; [1]): 3.55
- pKd (TJP1_2, Q07157; [1]): below the threshold
- pKd (NHERF4_2, Q86UT5; [1]): below the threshold
- pKd (GORASP2, Q9H8Y8; [1]): below the threshold
- pKd (SYNJ2BP, P57105; [1]): 3.68
- pKd (NHERF3_1, Q5T2W1; [1]): 3.91
- pKd (LNX2_2, Q8N448; [1]): below the threshold
- pKd (MPP2, Q14168; [1]): below the threshold
- pKd (PDZRN4_1, Q6ZMN7; [1]): 3.56
- pKd (NHERF2_2, Q15599; [1]): 3.6
- pKd (MAGI1_2, Q96QZ7; [1]): 3.52
- pKd (DLG4_1, P78352; [1]): 3.65
- pKd (SHANK1, Q9Y566; [1]): below the threshold
- pKd (DLG3_2, Q92796; [1]): 3.81
- pKd (MAST1, Q9Y2H9; [1]): 4.32
- pKd (SCRIB_1, Q14160; [1]): 4.02
- pKd (PTPN3, P26045; [1]): 3.77
- pKd (LIN7C, Q9NUP9; [1]): 3.66
- pKd (NHERF3_4, Q5T2W1; [1]): below the threshold
- pKd (GORASP1, Q9BQQ3; [1]): 3.56
- pKd (SNTG1, Q9NSN8; [1]): below the threshold
- pKd (DFNB31_3, Q9P202; [1]): 3.67
- pKd (FRMPD3, Q5JV73; [1]): below the threshold
- pKd (Inadl_8, Q8NI35; [1]): 3.54
- pKd (RHPN1, Q8TCX5; [1]): 4.43
- pKd (MAGI2_3, Q86UL8; [1]): below the threshold
Binder: DPRNTQTSQI [ABRAXAS2, Q15018]

- pKd (LNX1_1, Q8TBB1; [2]): 3.73
- pKd (DLG4_2, P78352; [2]): 4.15
- pKd (TJP1_2, Q07157; [2]): 3.5
- pKd (NHERF4_2, Q86UT5; [2]): below the threshold
- pKd (GORASP2, Q9H8Y8; [2]): 4.17
- pKd (SYNJ2BP, P57105; [2]): below the threshold
- pKd (NHERF3_1, Q5T2W1; [2]): 4.54
- pKd (LNX2_2, Q8N448; [2]): 3.91
- pKd (MPP2, Q14168; [2]): below the threshold
- pKd (PDZRN4_1, Q6ZMN7; [2]): below the threshold
- pKd (NHERF2_2, Q15599; [2]): 4.16
- pKd (MAGI1_2, Q96QZ7; [2]): below the threshold
- pKd (DLG4_1, P78352; [2]): 3.9
- pKd (SHANK1, Q9Y566; [2]): 4.42
- pKd (DLG3_2, Q92796; [2]): 4.02
- pKd (MAST1, Q9Y2H9; [2]): 4.85
- pKd (SCRIB_1, Q14160; [2]): 3.99
- pKd (PTPN3, P26045; [2]): 3.97
- pKd (LIN7C, Q9NUP9; [2]): 4.08
- pKd (NHERF3_4, Q5T2W1; [2]): 3.7
- pKd (GORASP1, Q9BQQ3; [2]): 3.87
- pKd (SNTG1, Q9NSN8; [2]): 3.76
- pKd (DFNB31_3, Q9P202; [2]): below the threshold
- pKd (FRMPD3, Q5JV73; [2]): below the threshold
- pKd (Inadl_8, Q8NI35; [2]): 4.01
- pKd (RHPN1, Q8TCX5; [2]): 4.38
- pKd (MAGI2_3, Q86UL8; [2]): 4.16
Binder: TETASVCTKV [SLC23A1, Q9UHI7]

- pKd (LNX1_1, Q8TBB1; [2]): 4.02
- pKd (DLG4_2, P78352; [2]): 4.53
- pKd (TJP1_2, Q07157; [2]): below the threshold
- pKd (NHERF4_2, Q86UT5; [2]): below the threshold
- pKd (GORASP2, Q9H8Y8; [2]): below the threshold
- pKd (SYNJ2BP, P57105; [2]): 5.31
- pKd (NHERF3_1, Q5T2W1; [2]): 4.82
- pKd (LNX2_2, Q8N448; [2]): below the threshold
- pKd (MPP2, Q14168; [2]): below the threshold
- pKd (PDZRN4_1, Q6ZMN7; [2]): 3.92
- pKd (NHERF2_2, Q15599; [2]): below the threshold
- pKd (MAGI1_2, Q96QZ7; [2]): 3.73
- pKd (DLG4_1, P78352; [2]): 4.07
- pKd (SHANK1, Q9Y566; [2]): 4.34
- pKd (DLG3_2, Q92796; [2]): 4.26
- pKd (MAST1, Q9Y2H9; [2]): 4.23
- pKd (SCRIB_1, Q14160; [2]): 4.57
- pKd (PTPN3, P26045; [2]): 4.59
- pKd (LIN7C, Q9NUP9; [2]): 3.52
- pKd (NHERF3_4, Q5T2W1; [2]): below the threshold
- pKd (GORASP1, Q9BQQ3; [2]): below the threshold
- pKd (SNTG1, Q9NSN8; [2]): 4.35
- pKd (DFNB31_3, Q9P202; [2]): 3.57
- pKd (FRMPD3, Q5JV73; [2]): below the threshold
- pKd (Inadl_8, Q8NI35; [2]): 4.71
- pKd (RHPN1, Q8TCX5; [2]): 4.18
- pKd (MAGI2_3, Q86UL8; [2]): 3.83
Binder: FVHPILQSAV [PRKCA, P17252]
